These results are taken from patent US20240293512A1 (HANMI PHARM, published 2024).

Bridge positions count the residues as written; N and C are the ends. Square brackets hold non-standard residues; d marks the D form. Ends that are not written are not given here. * marks the point of attachment. Acetyl(2-(4-imidazolyl)) = O=C(Cc1c[nH]cn1)*; Aib = CC(C)(N)C(=O)O

T1: human GIP receptor (human, UniProt P48546 22-466)
T1 sequence (looked up): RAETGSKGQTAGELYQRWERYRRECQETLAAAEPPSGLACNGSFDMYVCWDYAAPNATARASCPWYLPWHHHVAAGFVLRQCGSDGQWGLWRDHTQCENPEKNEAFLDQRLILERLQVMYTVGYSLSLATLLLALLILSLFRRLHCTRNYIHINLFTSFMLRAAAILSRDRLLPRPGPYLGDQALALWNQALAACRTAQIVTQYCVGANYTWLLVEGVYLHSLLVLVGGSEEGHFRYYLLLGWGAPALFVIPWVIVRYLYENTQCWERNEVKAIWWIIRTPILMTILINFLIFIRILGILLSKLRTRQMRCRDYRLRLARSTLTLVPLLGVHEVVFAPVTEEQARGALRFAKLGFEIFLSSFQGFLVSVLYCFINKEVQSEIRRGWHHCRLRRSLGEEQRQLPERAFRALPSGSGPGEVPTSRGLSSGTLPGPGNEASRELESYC

One assay concerns the target T1, human GIP receptor. Description: cell-based or functional assay.
As to H[Aib]QGTFTSDYSKYLCEKRQKEFVQWLLNGGPSSGAPPPSG (bridge 16-20) [triple agonist of SEQ ID NO: 36], the “In vitro activity compared with native peptide (%) vs GIP (cAMP EC50)” value (“In vitro activity … (%) vs GIP (cAMP EC50)” for short) worked out at 0.2%.

Consider H[Aib]QGTFTSDYSKYLDECRQKEFVQWLLNGGPSSGAPPPSG (bridge 16-20) [triple agonist of SEQ ID NO: 37], for which the “In vitro activity … (%) vs GIP (cAMP EC50)” value was 2.2%.

On to H[Aib]QGTFTSDVSSYLLGQQQKEFIAWLVKGC [triple agonist of SEQ ID NO: 4], for which the “In vitro activity … (%) vs GIP (cAMP EC50)” value is less than 0.1%.

In the case of H[Aib]QGTFTSDYSIAMDEIHQKDFVNWLLNTKC (bridge 16-20) [triple agonist of SEQ ID NO: 35], the “In vitro activity … (%) vs GIP (cAMP EC50)” value is 1.3%.

In the case of H[Aib]QGTFTSDYSKYLDGQHAQCFVAWLLAGGGPSSGAPPPS [triple agonist of SEQ ID NO: 39], the “In vitro activity … (%) vs GIP (cAMP EC50)” value was less than 0.1%.

In the case of Y[Aib]QGTFTSDYSKYLDEKRAKEFVQWLLDHHPSSGQPPPSC (not fully specified (bridges)) [triple agonist of SEQ ID NO: 42], the “In vitro activity … (%) vs GIP (cAMP EC50)” value was determined as 7.8%.

With H[Aib]QGTFTSDVSSYLDGQAAKEFIAWLVKGC [triple agonist of SEQ ID NO: 1], the “In vitro activity … (%) vs GIP (cAMP EC50)” value is less than 0.1%.

On to H[Aib]QGTFTSDKSKYLDERACQDFVQWLLDGGPSSGAPPPS [triple agonist of SEQ ID NO: 40], for which the “In vitro activity … (%) vs GIP (cAMP EC50)” value is less than 0.1%.

As to H[Aib]QGTFTSDYSKYLDEKRQKEFVNWLLAQKC (bridge 16-20) [triple agonist of SEQ ID NO: 34], the “In vitro activity … (%) vs GIP (cAMP EC50)” value was determined as 0.6%.

Take H[Aib]QGTFTSDKSKYLDECAAQDFVQWLLDGGPSSGAPPPS [triple agonist of SEQ ID NO: 41]: the “In vitro activity … (%) vs GIP (cAMP EC50)” value was less than 0.1%.

The target in a further assay is human GCG receptor (human, UniProt P47871 26-477). Description: cell-based or functional assay.
Chain of human GCG receptor (P47871 26-477): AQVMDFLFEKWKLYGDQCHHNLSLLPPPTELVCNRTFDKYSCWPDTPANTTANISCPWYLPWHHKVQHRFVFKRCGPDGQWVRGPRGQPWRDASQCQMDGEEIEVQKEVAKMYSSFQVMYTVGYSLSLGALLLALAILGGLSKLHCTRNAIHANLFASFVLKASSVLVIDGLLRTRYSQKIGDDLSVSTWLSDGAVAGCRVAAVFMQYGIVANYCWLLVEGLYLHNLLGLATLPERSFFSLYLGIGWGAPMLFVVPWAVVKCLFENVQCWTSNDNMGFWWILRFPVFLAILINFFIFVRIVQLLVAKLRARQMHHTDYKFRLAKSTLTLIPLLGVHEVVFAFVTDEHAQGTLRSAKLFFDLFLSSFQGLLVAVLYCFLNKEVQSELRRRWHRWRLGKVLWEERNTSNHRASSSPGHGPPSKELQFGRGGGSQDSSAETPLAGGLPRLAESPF
As for H[Aib]QGTFTSDYSKYLCEKRQKEFVQWLLNGGPSSGAPPPSG (bridge 16-20) [triple agonist of SEQ ID NO: 36], the “In vitro activity compared with native peptide (%) vs Glucagon (cAMP EC50)” value (“In vitro activity … (%) vs Glucagon (cAMP EC50)” for short) was determined as 0.39%.

With H[Aib]QGTFTSDYSKYLDECRQKEFVQWLLNGGPSSGAPPPSG (bridge 16-20) [triple agonist of SEQ ID NO: 37], the “In vitro activity … (%) vs Glucagon (cAMP EC50)” value was determined as 6.21%.

Take H[Aib]QGTFTSDVSSYLLGQQQKEFIAWLVKGC [triple agonist of SEQ ID NO: 4]: the “In vitro activity … (%) vs Glucagon (cAMP EC50)” value is less than 0.1%.

Take H[Aib]QGTFTSDYSIAMDEIHQKDFVNWLLNTKC (bridge 16-20) [triple agonist of SEQ ID NO: 35]: the “In vitro activity … (%) vs Glucagon (cAMP EC50)” value was less than 0.1%.

With H[Aib]QGTFTSDYSKYLDGQHAQCFVAWLLAGGGPSSGAPPPS [triple agonist of SEQ ID NO: 39], the “In vitro activity … (%) vs Glucagon (cAMP EC50)” value was determined as 0.53%.

Take Y[Aib]QGTFTSDYSKYLDEKRAKEFVQWLLDHHPSSGQPPPSC (not fully specified (bridges)) [triple agonist of SEQ ID NO: 42]: the “In vitro activity … (%) vs Glucagon (cAMP EC50)” value was 206%.

Take H[Aib]QGTFTSDVSSYLDGQAAKEFIAWLVKGC [triple agonist of SEQ ID NO: 1]: the “In vitro activity … (%) vs Glucagon (cAMP EC50)” value was less than 0.1%.

On to H[Aib]QGTFTSDKSKYLDERACQDFVQWLLDGGPSSGAPPPS [triple agonist of SEQ ID NO: 40], for which the “In vitro activity … (%) vs Glucagon (cAMP EC50)” value is less than 0.1%.

Regarding H[Aib]QGTFTSDYSKYLDEKRQKEFVNWLLAQKC (bridge 16-20) [triple agonist of SEQ ID NO: 34], the “In vitro activity … (%) vs Glucagon (cAMP EC50)” value was 0.92%.

Turning to H[Aib]QGTFTSDKSKYLDECAAQDFVQWLLDGGPSSGAPPPS [triple agonist of SEQ ID NO: 41], the “In vitro activity … (%) vs Glucagon (cAMP EC50)” value is less than 0.1%.

Another assay concerns the target human GLP-1 receptor (human, UniProt P43220 24-463). Briefly: cell-based or functional assay.
With H[Aib]QGTFTSDYSKYLCEKRQKEFVQWLLNGGPSSGAPPPSG (bridge 16-20) [triple agonist of SEQ ID NO: 36], the “In vitro activity compared with native peptide (%) vs GLP-1 (cAMP EC50)” value (from here on “In vitro activity … (%) vs GLP-1 (cAMP EC50)”) was determined as 37.4%.

In the case of H[Aib]QGTFTSDYSKYLDECRQKEFVQWLLNGGPSSGAPPPSG (bridge 16-20) [triple agonist of SEQ ID NO: 37], the “In vitro activity … (%) vs GLP-1 (cAMP EC50)” value stood at 236%.

For the molecule H[Aib]QGTFTSDVSSYLLGQQQKEFIAWLVKGC [triple agonist of SEQ ID NO: 4], the “In vitro activity … (%) vs GLP-1 (cAMP EC50)” value is 8.5%.

In the case of H[Aib]QGTFTSDYSIAMDEIHQKDFVNWLLNTKC (bridge 16-20) [triple agonist of SEQ ID NO: 35], the “In vitro activity … (%) vs GLP-1 (cAMP EC50)” value came out at 7.5%.

For the molecule H[Aib]QGTFTSDYSKYLDGQHAQCFVAWLLAGGGPSSGAPPPS [triple agonist of SEQ ID NO: 39], the “In vitro activity … (%) vs GLP-1 (cAMP EC50)” value is 13.9%.

On to Y[Aib]QGTFTSDYSKYLDEKRAKEFVQWLLDHHPSSGQPPPSC (not fully specified (bridges)) [triple agonist of SEQ ID NO: 42], for which the “In vitro activity … (%) vs GLP-1 (cAMP EC50)” value stood at 33.9%.

Turning to H[Aib]QGTFTSDVSSYLDGQAAKEFIAWLVKGC [triple agonist of SEQ ID NO: 1], the “In vitro activity … (%) vs GLP-1 (cAMP EC50)” value is 3.2%.

As for H[Aib]QGTFTSDKSKYLDERACQDFVQWLLDGGPSSGAPPPS [triple agonist of SEQ ID NO: 40], the “In vitro activity … (%) vs GLP-1 (cAMP EC50)” value was found to be 75.2%.

H[Aib]QGTFTSDYSKYLDEKRQKEFVNWLLAQKC (bridge 16-20) [triple agonist of SEQ ID NO: 34]: the “In vitro activity … (%) vs GLP-1 (cAMP EC50)” value was determined as 19.1%.

For H[Aib]QGTFTSDKSKYLDECAAQDFVQWLLDGGPSSGAPPPS [triple agonist of SEQ ID NO: 41], the “In vitro activity … (%) vs GLP-1 (cAMP EC50)” value stood at 34.3%.

For [Acetyl(2-(4-imidazolyl))][Aib]QGTFTSDKSSYLDERAAQDFVQWLLDGGPSSGAPPPSS [triple agonist of SEQ ID NO: 38], the “In vitro activity … (%) vs GLP-1 (cAMP EC50)” value was 2.3%.
